Results on 5 molecules are retold here after US20260174875A1 (Novo Nordisk A/S, priority 2023, published 2026).

Numbered stars: 1 amine (or outer) side, 2 acyl side, 3 side chain; on linkers, the order of the positions; unused ones are H or OH. Square brackets hold non-standard residues; d marks the D form. Side chains are listed from the residue outwards. * marks the point of attachment. C20 diacid = O=C(O)CCCCCCCCCCCCCCCCCCC(=O)*; C16 diacid = O=C(O)CCCCCCCCCCCCCCC(=O)*; γGlu = O=C(O)[C@H](CCC(=O)[*:2])N[*:1]; Chem. 28 = not defined here; AEEA = NCCOCCOCC(=O)O; Aib = CC(C)(N)C(=O)O

Data set [1] is described as follows: Chemical stability assessment in formulation (UPLC-UV-MS purity loss at 37° C.). The conditions noted are these: 8 mM phosphate buffer pH 7.4, 1 mg/mL, 2 weeks. Format: physicochemical. As to the method:
The assay was performed to investigate the extend of chemical degradation in vitro over time upon incubation at 37° C. for a period of 2 weeks.
Peptide solutions were prepared by dissolving freeze-dried powder in 8 mM phosphate buffer pH 7.4 to a target of 1 mg/mL. The pH of peptide solutions was adjusted to 7.4 with 0.02 M HCl or 0.02 M NaOH. Samples were filled in Agilent HPLC vials with fixed insert. Vials were capped to prevent evaporation. The HPLC vials were incubated at 37° C. and samples were withdrawn at different time points over a period of 2 weeks, flash frozen at −80° C., and stored at −20° C. until analysis.
A flow-rate of 100 μL/min was delivered with a Binary solvent manager pump having 0.1% formic acid in water as solvent A and 0.1% formic acid in acetonitrile as solvent B. Gradient elution was carried out using 20% B from 0 to 2 min followed by 20 to 50% B from 2 to 20 min in a total run time of 30 min.

Data set [2] deals with T1, human GLP-1 receptor (human, UniProt P43220 24-463). Description: cell-based or functional assay.
The target in data set [3] is T2, human amylin-3(a) receptor (human, UniProt P30988 25-474; O60896 24-148).
T2 sequence (looked up) 1: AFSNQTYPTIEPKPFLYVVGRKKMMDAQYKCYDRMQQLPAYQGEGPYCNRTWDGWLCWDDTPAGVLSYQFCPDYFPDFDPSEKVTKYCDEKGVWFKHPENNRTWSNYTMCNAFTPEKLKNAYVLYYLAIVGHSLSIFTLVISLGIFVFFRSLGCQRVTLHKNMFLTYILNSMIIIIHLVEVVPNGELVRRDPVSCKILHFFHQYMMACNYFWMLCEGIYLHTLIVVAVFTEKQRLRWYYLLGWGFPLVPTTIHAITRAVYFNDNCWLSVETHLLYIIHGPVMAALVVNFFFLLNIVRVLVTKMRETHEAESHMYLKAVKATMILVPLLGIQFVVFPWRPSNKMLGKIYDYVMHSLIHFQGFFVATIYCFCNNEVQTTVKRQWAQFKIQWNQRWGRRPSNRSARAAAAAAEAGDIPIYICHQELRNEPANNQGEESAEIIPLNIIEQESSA
T2 sequence (looked up) 2: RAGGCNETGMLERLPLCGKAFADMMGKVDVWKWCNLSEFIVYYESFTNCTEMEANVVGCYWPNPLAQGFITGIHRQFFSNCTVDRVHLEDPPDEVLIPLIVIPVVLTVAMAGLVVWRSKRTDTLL
Briefly: cell-based or functional assay.

The target of data set [4] is T3, human GIP receptor (human, UniProt P48546 22-466).
T3 sequence (looked up): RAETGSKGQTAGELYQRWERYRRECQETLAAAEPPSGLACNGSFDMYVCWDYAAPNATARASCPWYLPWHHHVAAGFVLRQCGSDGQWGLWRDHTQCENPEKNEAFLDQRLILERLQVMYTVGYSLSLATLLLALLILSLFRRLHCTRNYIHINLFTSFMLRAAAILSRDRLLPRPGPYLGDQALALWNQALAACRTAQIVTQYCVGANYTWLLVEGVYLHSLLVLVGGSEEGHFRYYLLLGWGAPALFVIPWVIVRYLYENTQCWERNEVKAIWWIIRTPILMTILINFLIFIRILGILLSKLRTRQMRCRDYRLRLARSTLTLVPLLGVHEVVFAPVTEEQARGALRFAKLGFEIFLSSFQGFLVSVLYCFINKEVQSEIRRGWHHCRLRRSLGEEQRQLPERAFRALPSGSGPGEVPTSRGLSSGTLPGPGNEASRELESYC
Briefly: cell-based or functional assay.

The target in data set [5] is T1, human GLP-1 receptor. Briefly: cell-based or functional assay. The source holds these as a separate data set.
Data set [6] deals with T2, human amylin-3(a) receptor. Description: cell-based or functional assay. The source holds these as a separate data set.
Data set [7] concerns the target T3, human GIP receptor. Briefly: cell-based or functional assay. This is another data set of the same source.

Turning to `CC[C@H](C)[C@H](NC(=O)[C@H](CCC(=O)O)NC(=O)[C@H](CCC(=O)O)NC(=O)[C@H](CC(C)C)NC(=O)[C@H](CC(C)C)NC(=O)[C@H](CCCCNC(=O)COCCOCCNC(=O)COCCOCCNC(=O)CC[C@H](NC(=O)CCCCCCCCCCCCCCCCCCC(=O)O)C(=O)O)NC(=O)[C@H](CO)NC(=O)[C@H](Cc1ccc(O)cc1)NC(=O)[C@H](CC(=O)O)NC(=O)[C@H](CO)NC(=O)[C@@H](NC(=O)[C@H](Cc1ccccc1)NC(=O)[C@@H](NC(=O)CNC(=O)[C@H](CCC(=O)O)NC(=O)C(C)(C)NC(=O)[C@@H](N)Cc1ccc(O)cc1)[C@@H](C)O)[C@@H](C)O)C(=O)N[C@@H](C)C(=O)N[C@@H](C)C(=O)N[C@@H](CCCNC(=N)N)C(=O)N[C@@H](CCC(=O)O)C(=O)N[C@@H](Cc1ccccc1)C(=O)N[C@H](C(=O)N[C@@H](CCC(=O)O)C(=O)N[C@@H](Cc1c[nH]c2ccccc12)C(=O)N[C@@H](CC(C)C)C(=O)N[C@@H](CC(C)C)C(=O)N[C@@H](C)C(=O)NCC(=O)NCC(=O)N1CCC[C@H]1C(=O)N[C@@H](CO)C(=O)N[C@@H](CO)C(=O)NCC(=O)N[C@@H](C)C(=O)NCC(=O)N[C@@H](CCC(N)=O)C(=O)N[C@@H](C)C(=O)N1CCC[C@H]1C(=O)NCC(=O)N[C@@H](CCC(N)=O)C(=O)N[C@@H](C)C(=O)N1CCC[C@H]1C(=O)NCC(=O)N[C@@H](C)C(=O)N[C@@H](CO)C(=O)N[C@@H](Cc1c[nH]cn1)C(=O)N[C@@H](CC(C)C)C(=O)N[C@@H](CO)C(=O)N[C@H](C(=O)N[C@@H](C)C(=O)N[C@@H](CCC(N)=O)C(=O)N[C@@H](CC(C)C)C(=O)NCC(=O)N[C@@H](CCCNC(=N)N)C(=O)N[C@@H](CC(C)C)C(=O)N[C@@H](CO)C(=O)N[C@@H](C)C(=O)N[C@@H](CCC(=O)O)C(=O)N[C@@H](CC(C)C)C(=O)N[C@@H](Cc1c[nH]cn1)C(=O)N[C@@H](CCC(N)=O)C(=O)N[C@@H](CC(C)C)C(=O)N[C@@H](C)C(=O)N[C@H](C(=O)N[C@@H](CC(C)C)C(=O)N1CCC[C@H]1C(=O)N[C@@H](CCCNC(=N)N)C(=O)N[C@H](C(=O)N[C@@H](CCC(=O)O)C(=O)N[C@H](C(=O)NCC(=O)N[C@@H](CO)C(=O)NCC(=O)N[C@@H](CO)C(=O)N1CCC[C@H]1C(N)=O)[C@@H](C)O)[C@@H](C)O)[C@@H](C)O)[C@@H](C)O)[C@@H](C)CC` [Compound 123], the “Purity loss per week at 37° C.” value in data set [1] turned out to be 1.0%.

With `CC[C@H](C)[C@H](NC(=O)[C@H](CCC(=O)O)NC(=O)[C@H](CCC(=O)O)NC(=O)[C@H](CC(C)C)NC(=O)[C@H](CC(C)C)NC(=O)[C@@H](NC(=O)[C@H](CO)NC(=O)[C@H](Cc1ccc(O)cc1)NC(=O)[C@H](CC(=O)O)NC(=O)[C@H](CO)NC(=O)[C@@H](NC(=O)[C@H](Cc1ccccc1)NC(=O)[C@@H](NC(=O)CNC(=O)[C@H](CCC(=O)O)NC(=O)C(C)(C)NC(=O)[C@@H](N)Cc1ccc(O)cc1)[C@@H](C)O)[C@@H](C)O)[C@@H](C)CC)C(=O)N[C@@H](C)C(=O)N[C@@H](C)C(=O)N[C@@H](CCCNC(=N)N)C(=O)N[C@@H](CCC(=O)O)C(=O)N[C@@H](Cc1ccccc1)C(=O)N[C@H](C(=O)N[C@@H](CCC(=O)O)C(=O)N[C@@H](Cc1c[nH]c2ccccc12)C(=O)N[C@@H](CC(C)C)C(=O)N[C@@H](CC(C)C)C(=O)N[C@@H](C)C(=O)NCC(=O)NCC(=O)N1CCC[C@H]1C(=O)N[C@@H](CO)C(=O)N[C@@H](CO)C(=O)NCC(=O)N[C@@H](CCC(=O)O)C(=O)NCC(=O)N[C@@H](CCC(N)=O)C(=O)N[C@@H](C)C(=O)N1CCC[C@H]1C(=O)NCC(=O)N[C@@H](CCC(N)=O)C(=O)N[C@@H](C)C(=O)N1CCC[C@H]1C(=O)NCC(=O)N[C@@H](C)C(=O)N[C@@H](CO)C(=O)N[C@@H](Cc1c[nH]cn1)C(=O)N[C@@H](CC(C)C)C(=O)N[C@@H](CO)C(=O)N[C@H](C(=O)N[C@@H](C)C(=O)N[C@@H](CCC(N)=O)C(=O)N[C@H](C(=O)N[C@@H](CCC(N)=O)C(=O)N[C@@H](CCCNC(=N)N)C(=O)N[C@@H](CC(C)C)C(=O)N[C@@H](CO)C(=O)N[C@@H](C)C(=O)N[C@@H](CCC(=O)O)C(=O)N[C@@H](CC(C)C)C(=O)N[C@@H](Cc1c[nH]cn1)C(=O)N[C@@H](CCCCNC(=O)COCCOCCNC(=O)COCCOCCNC(=O)CC[C@H](NC(=O)CCCCCCCCCCCCCCCCCCC(=O)O)C(=O)O)C(=O)N[C@@H](CC(C)C)C(=O)N[C@@H](C)C(=O)N[C@H](C(=O)N[C@@H](CC(C)C)C(=O)N1CCC[C@H]1C(=O)N[C@@H](CCCNC(=N)N)C(=O)N[C@H](C(=O)N[C@@H](CCC(=O)O)C(=O)N[C@H](C(=O)NCC(=O)N[C@@H](CO)C(=O)NCC(=O)N[C@@H](CO)C(=O)N1CCC[C@H]1C(N)=O)[C@@H](C)O)[C@@H](C)O)[C@@H](C)O)[C@@H](C)O)[C@@H](C)O)[C@@H](C)CC` [Compound 147], the “Purity loss per week at 37° C.” value in data set [1] came out at 1.0%.

B1: Compound 17 (peptide)
peptide: H[Aib]HGTFTSDYSILLEEQAAREFIEWLLAGGPSK([AEEA-AEEA-γGlu-C16 diacid])GEASELSTAALGRLSAELHRLATLPRTETGSGSP-NH2
On to B1, for which the “hGLP-1R Potency, no HSA, EC50 [pM]” value in the data set with human GLP-1 receptor [2] stood at 2.72 pM. In addition, the “hAMYR3 Potency, no HSA, EC50 [pM]” value in data set [3] came to 5.13 pM. In the data set with human GIP receptor [4], the “hGIPR Potency, no HSA, EC50 [pM]” value amounted to 5.04 pM. Also, the “hGLP-1R Potency, 1% HSA, EC50 [pM]” value in the data set with human GLP-1 receptor [5] stood at 13.1 pM. Further, the “hAMYR3 Potency, 1% HSA, EC50 [pM]” value in data set [6] was found to be 33.6 pM. Further, in the data set with human GIP receptor [7], the “hGIPR Potency, 1% HSA, EC50 [pM]” value is 36.9 pM.

B2: Compound 16 (peptide)
peptide: H[Aib]HGTFTSDYSILLEEQAAREFIEWLLAGGPSK([AEEA-AEEA-γGlu-C20 diacid])GAPPPSGGGEASELSTAALGRLSAELHELATLPRTETGSGSP-NH2
Turning to B2, the “hGLP-1R Potency, no HSA, EC50 [pM]” value in the data set with human GLP-1 receptor [2] worked out at 2.74 pM. The “hAMYR3 Potency, no HSA, EC50 [pM]” value in data set [3] was determined as 5.7 pM. The “hGIPR Potency, no HSA, EC50 [pM]” value in the data set with human GIP receptor [4] is 4.27 pM. In the data set with human GLP-1 receptor [5], the “hGLP-1R Potency, 1% HSA, EC50 [pM]” value worked out at 238 pM. The “hAMYR3 Potency, 1% HSA, EC50 [pM]” value in data set [6] came to 166 pM. The “hGIPR Potency, 1% HSA, EC50 [pM]” value with human GIP receptor [7] was found to be 485 pM.

B3: Compound 26 (peptide)
peptide: Y[Aib]EGTFTSDYSILLEEQAAREFIEWLLAGGPSK(Chem. 28)GEASELSTAALGRLSAELHELATLPRTETGSGSP-NH2
modifications: reading uncertain
For B3, in the data set with human GLP-1 receptor [2], the “hGLP-1R Potency, no HSA, EC50 [pM]” value was 20.7 pM. In addition, the “hAMYR3 Potency, no HSA, EC50 [pM]” value in data set [3] turned out to be 11.8 pM. Moreover, the “hGIPR Potency, no HSA, EC50 [pM]” value with human GIP receptor [4] was 1.75 pM. Further, the “hGLP-1R Potency, 1% HSA, EC50 [pM]” value with human GLP-1 receptor [5] was 1680 pM. In data set [6], the “hAMYR3 Potency, 1% HSA, EC50 [pM]” value came out at 349 pM. Further, the “hGIPR Potency, 1% HSA, EC50 [pM]” value with human GIP receptor [7] was 558 pM.
